The test system of the data set is MS2 coat protein. Put plainly: apparent KD of MS2 coat protein; designed switch direction (-1 OFF switch, 1 ON switch): -1; higher = weaker reporter binding. The method, boiled down: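 Apparent KD, taken as the median over clusters for each design, was obtained by curve-fitting normalised cluster fluorescence. Designed RNA switches had been transcribed on Illumina chips by stalled E. coli RNA polymerase and titrated with SNAP-549-labelled MS2 coat protein, doubling from 0.7 or 1.5 nM to 3 µM.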

Setting [1] is: Eterna round: R95, input ligand: FMN 200 uM.
Where [2] appears, read: Eterna round: R95, input ligand: microRNA oligo, concentration not stated.
The mark [3] stands for this setting: Eterna round: R95, input ligand: none.
Setting [4] is: input ligand: microRNA oligo, concentration not stated.

Regarding “UGGAAGUGAGGAUAUCCAAUAUAUGACAUGAGGAUCACCCAUGUUUCCACUCGUACCUCCGGAGAAGGCACAAGGU [Ex5 #56] (Eterna round: R97, puzzle: Exclusion 5)”, the “apparent KD of MS2 coat protein” value was 56.5 nM (input ligand: FMN 200 uM) and 57.3 nM (input ligand: none).

Regarding “AAAUCGGUAGAGGAUAUUGUACAGGAAACGGUGCGAGAAGGUUGCACAUGAGGAUCACCCAUGUUUAAUUGCGA [EX6 #49] (Eterna round: R97, puzzle: Exclusion 6)”, the “apparent KD of MS2 coat protein” value (input ligand: FMN 200 uM) turned out to be 43.1 nM and the “apparent KD of MS2 coat protein” value (input ligand: none) was determined as 28.5 nM.

“UAUUAGCAAGCGAGAUCCCACAUGAGGAUCACCCAUGUGCUCGUCUUAUAAGGUACUGUGACGAAAGUCACGGUACC [Sensor 3, v1 - 95 v5] (Eterna round: R97, puzzle: Sensor, turn-off variant 1)”: the “apparent KD of MS2 coat protein” value by setting is: (input ligand: FMN 200 uM) 16.8 nM; (input ligand: none) 15.3 nM.

For “CGUGACUCAGGAUAUCUAUGAUAUCACAUGAGGAUCACCCAUGUCCAGCAAUAGCUGGAGGGAGAAGGGAGUCACG [Fiskers Ex 5 - 41] (puzzle: Exclusion 5)”, the “apparent KD of MS2 coat protein” value came to 84 nM under setting [1], 54.3 nM under setting [2] and 166 nM under setting [3].

On to “CCAAGAAUAGGAUAUACAACAUGCCAGCUUCUUUACAUCGCACAUGAGGAUCACCCAUGUAGAAGGGUUCUCUG [Exclusion-2-#15] (Eterna round: R97, puzzle: Exclusion 2)”, for which the “apparent KD of MS2 coat protein” value (input ligand: FMN 200 uM) is 182 nM and the “apparent KD of MS2 coat protein” value (input ligand: none) came out at 209 nM.

On to “UUAGAAAGGUUAGGAUAUUAAUUAUUGUAUAGUAUGAUCUACAUGAGGAUCACCCAUGUUAAAUAUAAGAAGGAACGUUAGAUU [JR_ExcNG2_Sub093] (Eterna round: R96, puzzle: Exclusion NG 2)”, for which the “apparent KD of MS2 coat protein” value under setting [4] came to 39.9 nM.

As for “ACAAGCUAUAUGCUCGGUUACAUGAGGAUCACCCAUGUACUCAUGUUCUUAUGUACUGACACGAAAGUGUUAGUAAU [AK-miRNA-r3-1] (Eterna round: R97, puzzle: Sensor, turn-off variant 1)”, the “apparent KD of MS2 coat protein” value reads like this: (input ligand: FMN 200 uM) 110 nM; (input ligand: none) 122 nM.

Turning to “UACAUGAGGAUCACCCAUGUUUUGUCGUGUAUGGUAUUUAUCUAGGAUAUCAAGUUAUUUAUGUAUGAGAAGGAGAAUAUUAAU [JMF's solution 36] (Eterna round: R96, puzzle: Exclusion NG 3)”, the “apparent KD of MS2 coat protein” value reads like this: (input ligand: FMN 200 uM) 42.5 nM; under setting [4], 26.4 nM; (input ligand: none) 35.2 nM.

Regarding “UUUAAACAUGAGGAUCACCCAUGUAAGGAUAUACGAAUGCAGACACACACGGAUGCAAGUAGAAGGUACAAUGC [Design #9] (Eterna round: R97, puzzle: Exclusion 1)”, the “apparent KD of MS2 coat protein” value worked out at 37.6 nM (input ligand: FMN 200 uM) and 42.6 nM (input ligand: none).

For “UAGAUGGGAGGAUAUACAUAGAUACAGAUUCAUGUAGUGCUACAUGAGGAUCACCCAUGUAGAAGGCCCGUCUU [JL-ex2-2.18 Mayanne mod] (Eterna round: R96, puzzle: Exclusion 2)”, the “apparent KD of MS2 coat protein” value reads like this: (input ligand: FMN 200 uM) 407 nM; under setting [4], 33.2 nM; (input ligand: none) 37.9 nM.

Take “UUCCCACAUGAGGAUCACCCAUGUGAGGAUAUGGAGCGCGACCGCGCGGUCGCGUACACCAGAAGGCGCAUGAU [1st #80] (Eterna round: R97, puzzle: Exclusion 1)”: the “apparent KD of MS2 coat protein” value amounted to 21 nM (input ligand: FMN 200 uM) and 16.2 nM (input ligand: none).

In the case of “CUGUACUGAGGAUAUACAUGAGGAUCACCCAUGUGUUCCUGCUAGGAAACUAGCAAGGGUAGAAGGCAGUACAG [Mat - Exclusion 3 - Eli Mod - D46] (Eterna round: R97, puzzle: Exclusion 3)”, the “apparent KD of MS2 coat protein” value turned out to be 100 nM (input ligand: FMN 200 uM) and 15.7 nM (input ligand: none).

With “ACCUCACAUGAGGAUCACCCAUGUCAGGAUAUGUACCCGAUCAAGUCAGAGAUCGGAAGCAGAAGGGACUGCGG [Bemabebe] (puzzle: Exclusion 1)”, the “apparent KD of MS2 coat protein” value is, setting by setting: under setting [1], 26.5 nM; under setting [2], 99.3 nM; under setting [3], 86.5 nM.

On to “CGUCCUGAAGUGAGGAUAUUGUCUCGGAUACGAAACAAGAAGGCACAUGAGGAUCACCCAUGUAAACAGGACGA [Malc #30 mod 11] (puzzle: Brourd's mod of Exclusion 4)”, for which the “apparent KD of MS2 coat protein” value under setting [1] worked out at 15.3 nM, the “apparent KD of MS2 coat protein” value under setting [2] came out at 15.6 nM and the “apparent KD of MS2 coat protein” value under setting [3] was 16.9 nM.

In the case of “GUCCUCUUGACAUGAGGAUCACCCAUGUAUUAUUUGUUAACUGAGGAUAUACUCUUAUUUUUUAUGUAGAAGGCAGAUUUGUUC [JR_ExcNG3_Sub022] (Eterna round: R96, puzzle: Exclusion NG 3)”, under setting [4], the “apparent KD of MS2 coat protein” value turned out to be 32.1 nM.

As to “GGCAAUAACGAGGAUAUCGUAUCGGAAACGAUACGAGAAGGUGUAACAUGAGGAUCACCCAUGUUCCUCAAGCC [Fiskers Ex 6 - 8] (puzzle: Exclusion 6)”, the “apparent KD of MS2 coat protein” value under setting [2] turned out to be 33.9 nM.

For the sequence “GGUCAGAUGGUAGGAUAUCCAUAUUGAGUGACCCUUUCAUAACAUGAGGAUCACCCAUGUCGGUGGGAGAAGGGCCGUACGGCG [salish99_ExNG02_R04_015] (Eterna round: R96, puzzle: Exclusion NG 2)”, the “apparent KD of MS2 coat protein” value by setting is: (input ligand: FMN 200 uM) 176 nM; under setting [4], 71.2 nM; (input ligand: none) 114 nM.

As for “AACAGAUGAGGAUAUACACGAGGAGUGAUACCGUAUGCCAGACAUGAGGAUCACCCAUGUAGAAGGCAUAAUAG [Celeated] (Eterna round: R97, puzzle: Exclusion 2)”, the “apparent KD of MS2 coat protein” value is 18.9 nM (input ligand: FMN 200 uM) and 12.4 nM (input ligand: none).

Regarding “GCGCCAUCGUGAGAUGGCGUUUCGACAUGAGGAUCACCCAUGUAGGAUAUCGAUUGCUUUGCAGUCGAGAAGGGCGUGAUAAGU [JL ENG3 3.72] (Eterna round: R96, puzzle: Exclusion NG 3)”, the “apparent KD of MS2 coat protein” value by setting is: (input ligand: FMN 200 uM) 104 nM; under setting [4], 74.4 nM; (input ligand: none) 98.2 nM.

With “CGGUACUGAGGAUAUACAUGAGGAUCACCCAUGUGUUCCAGCUAGCGUACUGGCAUUAGUAGAAGGCGGUGCUG [JL-ex3-3.17 Brourd mod] (puzzle: Exclusion 3)”, the “apparent KD of MS2 coat protein” value by setting is: under setting [1], 31.4 nM; under setting [2], 12.8 nM; under setting [3], 14.3 nM.

As to “UAUGGUUAAGUCAGGAUAUGCUCAUAGAAGUCUAUGCAGAAGGGACAUGAGGAUCACCCAUGUAUGGUCGUGUU [Ex4 #65] (Eterna round: R97, puzzle: Brourd's mod of Exclusion 4)”, the “apparent KD of MS2 coat protein” value was 142 nM (input ligand: FMN 200 uM) and 70.9 nM (input ligand: none).

As for “GCAAGCUUUUGCUCGGCUUACAUGAGGAUCACCCAUGUGGGCCCGGGCCCGGGCCCGCCGGGCCCGGGCCCGGGCCC [-58.5, -80.7, A 10%] (Eterna round: R97, puzzle: Sensor, turn-off variant 1)”, the “apparent KD of MS2 coat protein” value reads like this: (input ligand: FMN 200 uM) 24.4 nM; (input ligand: none) 25.4 nM.

Take “UUUUAACAUGAGGAUCACCCAUGUGAGGAUAUCGAAAUUUAUAUUAAUAUUAAUUAAACGAGAAGGCACAUUUU [JMF 27] (puzzle: Exclusion 1)”: under setting [2], the “apparent KD of MS2 coat protein” value is 72.5 nM.

For the sequence “GGUUCGAAUGUGAGGAUAUGCUGGUCCUUGGAUCAGCAGAAGGCACAUGAGGAUCACCCAUGUGGUAACGGACC [Mat - Exclusion 4 - Eli Mod - D36] (Eterna round: R97, puzzle: Brourd's mod of Exclusion 4)”, the “apparent KD of MS2 coat protein” value runs as follows: (input ligand: FMN 200 uM) 178 nM; (input ligand: none) 357 nM.

Regarding “GGUGAGCUAGGAUAUGCUUUGGGCCCGCAUUCCUUCGAUAAACUUGAGGAUCACCCAAGUAGAAGGAGCUUGCC [salish99_ex2_r4_031] (Eterna round: R97, puzzle: Exclusion 2)”, the “apparent KD of MS2 coat protein” value is 30.4 nM (input ligand: FMN 200 uM) and 17 nM (input ligand: none).

In the case of “ACGUAUAGAGGAUAUACAGAAUAUUACAUGAGGAUCACCCAUGUUCUUCAAUGUAUAUUUGUAGAAGGCUAAUGAA [EX-5 Malc#8] (puzzle: Exclusion 5)”, under setting [2], the “apparent KD of MS2 coat protein” value is 62.3 nM.

For the sequence “ACACUGCGAGGAUAUACAUGAGGAUCACCCAUGUUUCGGUAGUCAAGGUUAAUUUAAGGUAGAAGGCGCGUAUU [JR_Ex3_Sub010] (Eterna round: R97, puzzle: Exclusion 3)”, the “apparent KD of MS2 coat protein” value turned out to be 63.8 nM (input ligand: FMN 200 uM) and 33.2 nM (input ligand: none).

Consider “CAGUACUGAGGAUAUACAUGAGGAUCACCCAUGUGAGAAAUACUAAUGAGGUCGAUUAGUAGAAGGCAGUACUG [Mat - Exclusion 3 - Eli Mod - D32] (Eterna round: R97, puzzle: Exclusion 3)”, for which the “apparent KD of MS2 coat protein” value is, setting by setting: (input ligand: FMN 200 uM) 255 nM; (input ligand: none) 19.7 nM.

For “GGAUCGAAUGUGAGGAUAUGCUGGUCCUUGGAUCAGCAGAAGGCACAUGAGGAUCACCCAUGUCCAAACGGUCC [Eli bmx4 4.44] (Eterna round: R97, puzzle: Brourd's mod of Exclusion 4)”, the “apparent KD of MS2 coat protein” value runs as follows: (input ligand: FMN 200 uM) 352 nM; (input ligand: none) 525 nM.

Turning to “AGAGAGUCAGGAUAUCGAAGGUAGAGAAGAGGAGAGUGGUACGAGAAGGGACAUGAGGAUCACCCAUGUAGGUG [JR_Exclusion4)Sub012] (puzzle: Exclusion 4)”, the “apparent KD of MS2 coat protein” value turned out to be 193 nM under setting [1], 245 nM under setting [2] and 462 nM under setting [3].

Take “AGGAUGUAAGGAUAUCCAAGGGUAACGCCAAUGGCAGCCCAGGAGAAGGUACAUGAGGAUCACCCAUGUGAUAA [Leatbi] (Eterna round: R97, puzzle: Exclusion 4)”: the “apparent KD of MS2 coat protein” value was determined as 263 nM (input ligand: FMN 200 uM) and 80.8 nM (input ligand: none).

“UGAGACUGAGGAUAUACUUGCCCAUAAAGUGGGUAGUGGGUACAUGAGGAUCACCCAUGUAGAAGGCAGCCUCG [Omei Repeat Sequence v3] (Eterna round: R97, puzzle: Exclusion 2)”: the “apparent KD of MS2 coat protein” value was found to be 597 nM (input ligand: FMN 200 uM) and 46.3 nM (input ligand: none).

For the origin of these results see the supplement of paper PMC9170038.
